Measured values from article PMC2063917.

Assays:
[1] = target: NH2-terminal His6-tagged p40 (UniProt Q7Z6M1); assay: pull-down
[2] = target: His6-TIP47(152-434) (UniProt O60664); assay: pull-down
UniProt O60664, sequence (O60664 152-434): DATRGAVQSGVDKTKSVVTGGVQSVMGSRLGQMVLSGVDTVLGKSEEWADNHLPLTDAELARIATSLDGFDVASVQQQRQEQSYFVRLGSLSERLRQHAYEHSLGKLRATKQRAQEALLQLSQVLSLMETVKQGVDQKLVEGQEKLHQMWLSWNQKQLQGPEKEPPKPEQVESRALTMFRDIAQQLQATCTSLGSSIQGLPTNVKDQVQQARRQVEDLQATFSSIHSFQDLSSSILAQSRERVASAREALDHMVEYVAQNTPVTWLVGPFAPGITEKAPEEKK

UniProt Q7Z6M1, sequence (Q7Z6M1 whole entry): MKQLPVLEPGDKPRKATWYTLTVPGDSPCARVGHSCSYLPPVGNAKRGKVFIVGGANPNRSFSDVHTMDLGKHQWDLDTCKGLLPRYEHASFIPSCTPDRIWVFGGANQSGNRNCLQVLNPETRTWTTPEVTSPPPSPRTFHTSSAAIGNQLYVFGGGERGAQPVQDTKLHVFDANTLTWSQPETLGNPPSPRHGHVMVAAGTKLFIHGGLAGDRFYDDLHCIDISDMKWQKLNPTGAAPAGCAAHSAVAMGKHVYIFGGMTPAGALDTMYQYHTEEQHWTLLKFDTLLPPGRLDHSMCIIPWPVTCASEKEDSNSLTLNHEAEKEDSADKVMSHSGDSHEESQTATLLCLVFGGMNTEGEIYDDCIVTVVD

pmol Rab9 bound (taken as 100% binding) [1]: 3.9 pmol | pmol Rab9 bound (taken as 100% binding) [2]: 1.5 pmol
Substance: Rab9-CLLL, untagged (from UniProt P24408 1-201) (natural protein)
